EP4755917A1 (Fortvita Biologics Inc., dated 2026)
Blank lines part the entries; values can stand above or below the binder they belong to.

Molecular target: T1, Human OX40L (antigen of the ForteBio affinity assay) (human, UniProt P23510 51-183, limits assumed)
T1 construct: It may be the Acro His-tagged protein, but nothing ties it to that; also called CD252; CD134L
T1 sequence (looked up): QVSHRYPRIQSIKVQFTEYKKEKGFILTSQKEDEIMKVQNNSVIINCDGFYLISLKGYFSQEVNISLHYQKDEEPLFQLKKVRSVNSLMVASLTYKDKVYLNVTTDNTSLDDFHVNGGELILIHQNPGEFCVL
Test: ForteBio (biolayer interferometry)

Kd: 0.307 nM
B1: HZ18 (antibody, human IgG4 S228P, kappa, V domains shown)
VH: EVQLVQSGAEVKKPGATVKISCKVSGYSFTGYRIHWVQQAPGKGLEWMGYVDPYDDKTDYSQKSKGRVTITADTSTDTAYMELSSLRSEDTAVYYCAREGFAYWGQGTLVTVSS
VL: DIQMTQSPSSLSASVGDRVTITCTSSSSLRYMHWYQQKPGKAPKLLIYNTFDLASGVPSRFSGSGSGTDFTLTISSLQPEDFATYYCQQRTTYPPTFGQGTKLEIKR
notes: Humanized antibody expressed in HEK293; also called humanized anti-OX40L antibody

Kd: 0.379 nM
B2: HZ22 (antibody, human IgG4 S228P, kappa, V domains shown)
VH: QVQLQESGPGLVKPSQTLSLTCTVSGYAVTGDYAWSWIRQPPGKRLEWIGYISSSAGTNYNPSLKSRVTISVDTSKNQFSLKLSSVTAADTAVYYCARDLYYGGRNQWYFDVWGQGTLVTVSS
VL: DIQMTQSPSSLSASVGDRVTITCSATSSIIYMHWYQQKPGKAPKLLIYDTSKLPSGVPSRFSGSGSGTDFTLTISSLQPEDFATYYCHQRSSFPFTFGGGTKVEIKR
notes: as for B1
